Tested on: Escherichia coli TOP10
Experiment: shrunken log2 fold change of peptide-encoding DNA abundance (4.5 h post-induction vs induction); higher = less antimicrobial activity (less host growth inhibition)
Conditions: time post-induction: 4.5 h; library: site-saturation at positions 5, 18, 19, 20
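Also: peptides expressed intracellularly from a pBAD plasmid library in pooled LB shake-flask culture, induced with 0.3% L-arabinose, DNA abundance read by NGS, three biological replicates, DESeq2 with apeglm shrinkage.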

| Sequence | shrunken log2 fold change |
| --- | --- |
| RRIRHRPPRLPRPRPRPYSMPRP | -0.878 |
| RRIRHRPPRLPRPRPRPYTMPRP | -0.393 |
| RRIRHRPPRLPRPRPRPYTVPRP | 0.0229 |
| RRIRHRPPRLPRPRPRPYVWPRP | 0.0405 |
| RRIRHRPPRLPRPRPRPYWGPRP | -0.0562 |
| RRIRHRPPRLPRPRPRPYWRPRP | -0.347 |
| RRIRIRPPRLPRPRPRPAANPRP | 0.0204 |
| RRIRIRPPRLPRPRPRPAASPRP | 0.241 |
| RRIRIRPPRLPRPRPRPAATPRP | 0.0455 |
| RRIRIRPPRLPRPRPRPACRPRP | 0.225 |
| RRIRIRPPRLPRPRPRPACTPRP | 0.242 |
| RRIRIRPPRLPRPRPRPADQPRP | 0.0357 |
| RRIRIRPPRLPRPRPRPAFQPRP | 0.107 |
| RRIRIRPPRLPRPRPRPAGPPRP | 0.153 |
| RRIRIRPPRLPRPRPRPAICPRP | -0.15 |
| RRIRIRPPRLPRPRPRPAINPRP | -0.606 |
| RRIRIRPPRLPRPRPRPAKKPRP | 0.0493 |
| RRIRIRPPRLPRPRPRPAPCPRP | -0.0838 |
| RRIRIRPPRLPRPRPRPARTPRP | 0.0599 |
| RRIRIRPPRLPRPRPRPASNPRP | -0.205 |
| RRIRIRPPRLPRPRPRPATLPRP | -0.559 |
| RRIRIRPPRLPRPRPRPAVCPRP | -0.214 |
| RRIRIRPPRLPRPRPRPAVEPRP | 0.193 |
| RRIRIRPPRLPRPRPRPAWSPRP | -0.191 |
| RRIRIRPPRLPRPRPRPAWYPRP | 0.0724 |

| Sequence | shrunken log2 fold change |
| --- | --- |
| RRIRIRPPRLPRPRPRPAYGPRP | -0.253 |
| RRIRIRPPRLPRPRPRPAYIPRP | 0.011 |
| RRIRIRPPRLPRPRPRPAYRPRP | -0.611 |
| RRIRIRPPRLPRPRPRPCAGPRP | -0.000248 |
| RRIRIRPPRLPRPRPRPCAIPRP | 0.137 |
| RRIRIRPPRLPRPRPRPCDFPRP | -0.834 |
| RRIRIRPPRLPRPRPRPCDQPRP | -0.021 |
| RRIRIRPPRLPRPRPRPCEMPRP | 0.0583 |
| RRIRIRPPRLPRPRPRPCGYPRP | -0.01 |
| RRIRIRPPRLPRPRPRPCHCPRP | 0.0274 |
| RRIRIRPPRLPRPRPRPCHNPRP | -0.293 |
| RRIRIRPPRLPRPRPRPCIAPRP | -0.0579 |
| RRIRIRPPRLPRPRPRPCKHPRP | -0.118 |
| RRIRIRPPRLPRPRPRPCMLPRP | -0.61 |
| RRIRIRPPRLPRPRPRPCMWPRP | -1.51 |
| RRIRIRPPRLPRPRPRPCNFPRP | -0.061 |
| RRIRIRPPRLPRPRPRPCNSPRP | -0.271 |
| RRIRIRPPRLPRPRPRPCPQPRP | -0.458 |
| RRIRIRPPRLPRPRPRPCPTPRP | -0.0511 |
| RRIRIRPPRLPRPRPRPCQGPRP | -0.0156 |
| RRIRIRPPRLPRPRPRPCREPRP | -0.0225 |
| RRIRIRPPRLPRPRPRPCRTPRP | -0.333 |
| RRIRIRPPRLPRPRPRPCSKPRP | -0.267 |
| RRIRIRPPRLPRPRPRPCSTPRP | -0.484 |
| RRIRIRPPRLPRPRPRPCWFPRP | -0.165 |

| Sequence | shrunken log2 fold change |
| --- | --- |
| RRIRIRPPRLPRPRPRPCYCPRP | -0.0457 |
| RRIRIRPPRLPRPRPRPDAHPRP | -0.136 |
| RRIRIRPPRLPRPRPRPDELPRP | 0.0623 |
| RRIRIRPPRLPRPRPRPDGFPRP | -0.00369 |
| RRIRIRPPRLPRPRPRPDHDPRP | -0.0366 |
| RRIRIRPPRLPRPRPRPDHGPRP | 0.0143 |
| RRIRIRPPRLPRPRPRPDMVPRP | 0.0032 |
| RRIRIRPPRLPRPRPRPDNLPRP | -0.00843 |
| RRIRIRPPRLPRPRPRPDPHPRP | -0.314 |
| RRIRIRPPRLPRPRPRPDQMPRP | -0.393 |
| RRIRIRPPRLPRPRPRPDSAPRP | -0.194 |
| RRIRIRPPRLPRPRPRPDSIPRP | -0.00884 |
| RRIRIRPPRLPRPRPRPDTFPRP | -0.364 |
| RRIRIRPPRLPRPRPRPDTGPRP | -0.375 |
| RRIRIRPPRLPRPRPRPDTIPRP | -0.0883 |
| RRIRIRPPRLPRPRPRPDTPPRP | 0.0459 |
| RRIRIRPPRLPRPRPRPDVHPRP | -0.00757 |
| RRIRIRPPRLPRPRPRPDWFPRP | 0.0564 |
| RRIRIRPPRLPRPRPRPDWNPRP | -0.993 |
| RRIRIRPPRLPRPRPRPDYGPRP | -0.117 |
| RRIRIRPPRLPRPRPRPEACPRP | -0.064 |
| RRIRIRPPRLPRPRPRPEANPRP | -0.00444 |
| RRIRIRPPRLPRPRPRPEATPRP | 0.511 |
| RRIRIRPPRLPRPRPRPECWPRP | 0.202 |
| RRIRIRPPRLPRPRPRPEFGPRP | 0.129 |

— the supplement of paper PMC9112550, “Optimization of the antimicrobial peptide Bac7 by deep mutational scanning” (BMC Biology, 2022)
